Source: patent US20230416330A1, “Optimized GIP Peptide Analogues” (Antag Therapeutics ApS, priority 2019, published 2023)
Starred links: 1 amine or outer side, 2 acyl side, 3 side chain; linkers in the order of their positions; H or OH if unused. Non-standard residues stand in square brackets, D forms with d. Groups on a side chain read outwards from the residue. No end group written: not given here. *: point of attachment. C18 diacid = O=C(O)CCCCCCCCCCCCCCCCC(=O)*; C16 diacid = O=C(O)CCCCCCCCCCCCCCC(=O)*; γGlu = O=C(O)[C@H](CCC(=O)[*:2])N[*:1]; Glutaryl = O=C(CCCC(=O)[*:2])[*:1]; AEEA = NCCOCCOCC(=O)O; Aib = CC(C)(N)C(=O)O

T1: human GIP receptor (human, UniProt P48546 22-466)
T1 sequence (looked up): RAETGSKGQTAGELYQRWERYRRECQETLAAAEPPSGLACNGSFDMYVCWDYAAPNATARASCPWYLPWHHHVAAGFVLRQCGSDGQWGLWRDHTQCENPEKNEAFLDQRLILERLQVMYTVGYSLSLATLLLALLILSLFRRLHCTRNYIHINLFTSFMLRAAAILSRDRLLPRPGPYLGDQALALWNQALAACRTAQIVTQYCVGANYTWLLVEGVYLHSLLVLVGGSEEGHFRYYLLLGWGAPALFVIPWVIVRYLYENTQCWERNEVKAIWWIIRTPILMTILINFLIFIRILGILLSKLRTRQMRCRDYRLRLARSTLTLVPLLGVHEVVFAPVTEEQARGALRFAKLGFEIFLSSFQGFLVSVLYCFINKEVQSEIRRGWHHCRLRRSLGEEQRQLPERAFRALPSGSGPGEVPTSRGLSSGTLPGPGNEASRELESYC


Molecular target: T1, human GIP receptor
Assay: cell-based or functional assay

Binder	nM (Kb, Gaddum assay, cAMP) [nM]	pKb (Gaddum assay, cAMP)
EGTFISEYSIALEKIK(C16 diacid)QQEFVEWLLAQKPSSGAPPPS-OH [AT718]	0.33	9.5
Glutaryl-GTFISEYSI[Aib]LEKIK([AEEA-AEEA-γGlu-C18 diacid])QQEFVEWLLAQKPSSGAPPPS-NH2 (SMILES CC[C@H](C)[C@H](NC(=O)[C@H](CCCCN)NC(=O)[C@H](CCC(=O)O)NC(=O)[C@H](CC(C)C)NC(=O)C(C)(C)NC(=O)[C@@H](NC(=O)[C@H](CO)NC(=O)[C@H](Cc1ccc(O)cc1)NC(=O)[C@H](CCC(=O)O)NC(=O)[C@H](CO)NC(=O)[C@@H](NC(=O)[C@H](Cc1ccccc1)NC(=O)[C@@H](NC(=O)CNC(=O)CCCC(=O)O)[C@@H](C)O)[C@@H](C)CC)[C@@H](C)CC)C(=O)N[C@@H](CCCCNC(=O)COCCOCCNC(=O)COCCOCCNC(=O)CC[C@H](NC(=O)CCCCCCCCCCCCCCCCC(=O)O)C(=O)O)C(=O)N[C@@H](CCC(N)=O)C(=O)N[C@@H](CCC(N)=O)C(=O)N[C@@H](CCC(=O)O)C(=O)N[C@@H](Cc1ccccc1)C(=O)N[C@H](C(=O)N[C@@H](CCC(=O)O)C(=O)N[C@@H](Cc1c[nH]c2ccccc12)C(=O)N[C@@H](CC(C)C)C(=O)N[C@@H](CC(C)C)C(=O)N[C@@H](C)C(=O)N[C@@H](CCC(N)=O)C(=O)N[C@@H](CCCCN)C(=O)N1CCC[C@H]1C(=O)N[C@@H](CO)C(=O)N[C@@H](CO)C(=O)NCC(=O)N[C@@H](C)C(=O)N1CCC[C@H]1C(=O)N1CCC[C@H]1C(=O)N1CCC[C@H]1C(=O)N[C@@H](CO)C(N)=O)C(C)C) [AT713]	0.31	9.5
EGTFISEYSI[Aib]MEKIK(C16 diacid)QQDFVEWLLAQKPSSGAPPPS-OH (N-terminus assumed; SMILES CC[C@H](C)[C@H](NC(=O)[C@H](CCCCN)NC(=O)[C@H](CCC(=O)O)NC(=O)[C@H](CCSC)NC(=O)C(C)(C)NC(=O)[C@@H](NC(=O)[C@H](CO)NC(=O)[C@H](Cc1ccc(O)cc1)NC(=O)[C@H](CCC(=O)O)NC(=O)[C@H](CO)NC(=O)[C@@H](NC(=O)[C@H](Cc1ccccc1)NC(=O)[C@@H](NC(=O)CNC(=O)[C@@H](N)CCC(=O)O)[C@@H](C)O)[C@@H](C)CC)[C@@H](C)CC)C(=O)N[C@@H](CCCCNC(=O)CCCCCCCCCCCCCCC(=O)O)C(=O)N[C@@H](CCC(N)=O)C(=O)N[C@@H](CCC(N)=O)C(=O)N[C@@H](CC(=O)O)C(=O)N[C@@H](Cc1ccccc1)C(=O)N[C@H](C(=O)N[C@@H](CCC(=O)O)C(=O)N[C@@H](Cc1c[nH]c2ccccc12)C(=O)N[C@@H](CC(C)C)C(=O)N[C@@H](CC(C)C)C(=O)N[C@@H](C)C(=O)N[C@@H](CCC(N)=O)C(=O)N[C@@H](CCCCN)C(=O)N1CCC[C@H]1C(=O)N[C@@H](CO)C(=O)N[C@@H](CO)C(=O)NCC(=O)N[C@@H](C)C(=O)N1CCC[C@H]1C(=O)N1CCC[C@H]1C(=O)N1CCC[C@H]1C(=O)N[C@@H](CO)C(=O)O)C(C)C) [AT716]	0.29	9.5
EGTFISEYSI[Aib]LEKIK([AEEA-AEEA-γGlu-C18 diacid])QQEFVEWLLAQKPSSGAPPPS-NH2 (N-terminus assumed; SMILES CC[C@H](C)[C@H](NC(=O)[C@H](CCCCN)NC(=O)[C@H](CCC(=O)O)NC(=O)[C@H](CC(C)C)NC(=O)C(C)(C)NC(=O)[C@@H](NC(=O)[C@H](CO)NC(=O)[C@H](Cc1ccc(O)cc1)NC(=O)[C@H](CCC(=O)O)NC(=O)[C@H](CO)NC(=O)[C@@H](NC(=O)[C@H](Cc1ccccc1)NC(=O)[C@@H](NC(=O)CNC(=O)[C@@H](N)CCC(=O)O)[C@@H](C)O)[C@@H](C)CC)[C@@H](C)CC)C(=O)N[C@@H](CCCCNC(=O)COCCOCCNC(=O)COCCOCCNC(=O)CC[C@H](NC(=O)CCCCCCCCCCCCCCCCC(=O)O)C(=O)O)C(=O)N[C@@H](CCC(N)=O)C(=O)N[C@@H](CCC(N)=O)C(=O)N[C@@H](CCC(=O)O)C(=O)N[C@@H](Cc1ccccc1)C(=O)N[C@H](C(=O)N[C@@H](CCC(=O)O)C(=O)N[C@@H](Cc1c[nH]c2ccccc12)C(=O)N[C@@H](CC(C)C)C(=O)N[C@@H](CC(C)C)C(=O)N[C@@H](C)C(=O)N[C@@H](CCC(N)=O)C(=O)N[C@@H](CCCCN)C(=O)N1CCC[C@H]1C(=O)N[C@@H](CO)C(=O)N[C@@H](CO)C(=O)NCC(=O)N[C@@H](C)C(=O)N1CCC[C@H]1C(=O)N1CCC[C@H]1C(=O)N1CCC[C@H]1C(=O)N[C@@H](CO)C(N)=O)C(C)C) [AT714]	0.43	9.4
Glutaryl-GTFISEYSI[Aib]LEKIK(C16 diacid)QQEFVEWLLAQKPSSGAPPPS-OH (SMILES CC[C@H](C)[C@H](NC(=O)[C@H](CCCCN)NC(=O)[C@H](CCC(=O)O)NC(=O)[C@H](CC(C)C)NC(=O)C(C)(C)NC(=O)[C@@H](NC(=O)[C@H](CO)NC(=O)[C@H](Cc1ccc(O)cc1)NC(=O)[C@H](CCC(=O)O)NC(=O)[C@H](CO)NC(=O)[C@@H](NC(=O)[C@H](Cc1ccccc1)NC(=O)[C@@H](NC(=O)CNC(=O)CCCC(=O)O)[C@@H](C)O)[C@@H](C)CC)[C@@H](C)CC)C(=O)N[C@@H](CCCCNC(=O)CCCCCCCCCCCCCCC(=O)O)C(=O)N[C@@H](CCC(N)=O)C(=O)N[C@@H](CCC(N)=O)C(=O)N[C@@H](CCC(=O)O)C(=O)N[C@@H](Cc1ccccc1)C(=O)N[C@H](C(=O)N[C@@H](CCC(=O)O)C(=O)N[C@@H](Cc1c[nH]c2ccccc12)C(=O)N[C@@H](CC(C)C)C(=O)N[C@@H](CC(C)C)C(=O)N[C@@H](C)C(=O)N[C@@H](CCC(N)=O)C(=O)N[C@@H](CCCCN)C(=O)N1CCC[C@H]1C(=O)N[C@@H](CO)C(=O)N[C@@H](CO)C(=O)NCC(=O)N[C@@H](C)C(=O)N1CCC[C@H]1C(=O)N1CCC[C@H]1C(=O)N1CCC[C@H]1C(=O)N[C@@H](CO)C(=O)O)C(C)C) [AT717]	0.17	9.8
Glutaryl-GTFISDYSI[Aib]MDKIK(C16 diacid)QQDFVEWLLAQKPSSGAPPPS-OH [AT715]	0.19	9.7
